Here are results for 1 molecule from patent publication US20190276511A1 (BIONTECH RNA PHARMACEUTICALS, published 2019).

In assay [1] the target is T1, CD27-Fc (human, UniProt P26842 20-191).
T1 construct: extracellular domain; hinge included for covalent assembly; also called CD27 receptor-Fc fusion protein; not shown: human Fc gamma 1 region including the hinge region
T1 sequence (looked up): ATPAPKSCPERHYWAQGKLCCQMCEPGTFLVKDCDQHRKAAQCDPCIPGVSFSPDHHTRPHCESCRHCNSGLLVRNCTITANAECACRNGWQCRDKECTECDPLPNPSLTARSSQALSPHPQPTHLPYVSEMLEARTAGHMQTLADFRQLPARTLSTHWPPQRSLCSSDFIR
Put plainly: ELISA, coated receptor-Fc. The protocol: (§1) Receptor binding of the EHD2-scDuokines was analyzed by ELISA using fusion proteins of the extracellular region of CD40, CD27 and 4-1BB, respectively, with the human Fcγ1 region including the hinge region for covalent assembly (CD40-Fc, CD27-Fc, 4-1BB-Fc). Receptor-Fc fusion proteins (200 ng/well) were coated overnight at 4° C. and remaining binding sites were blocked with PBS, 2% skimmed milk powder (2% MPBS).
In general terms: ELISA stands for enzyme-linked immunosorbent assay.

The target in assay [2] is T2, CD40-Fc (human, UniProt P25942 21-193).
T2 construct: extracellular domain; hinge included for covalent assembly; also called CD40 receptor-Fc fusion protein; not shown: human Fc gamma 1 region including the hinge region
T2 sequence (P25942 21-193 limits assumed): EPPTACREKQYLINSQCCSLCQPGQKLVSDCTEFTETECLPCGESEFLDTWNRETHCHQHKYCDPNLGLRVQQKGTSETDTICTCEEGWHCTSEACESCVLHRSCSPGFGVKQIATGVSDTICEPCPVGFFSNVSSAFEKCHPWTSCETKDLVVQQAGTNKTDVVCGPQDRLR
Put plainly: ELISA, coated receptor-Fc. Here is the method: as §1

The target of assay [3] is T3, 4-1BB-Fc (human, UniProt Q07011 24-186).
T3 construct: extracellular domain; hinge included for covalent assembly; also called 4-1BB receptor-Fc fusion protein; not shown: human Fc gamma 1 region including the hinge region
The experiment in a line: ELISA, coated receptor-Fc.

Assay [4] has as its target CD40 receptor on cells (human, UniProt P25942 21-277). Put plainly: cell-based or functional assay.

Chain of CD40 receptor on cells (P25942 21-277): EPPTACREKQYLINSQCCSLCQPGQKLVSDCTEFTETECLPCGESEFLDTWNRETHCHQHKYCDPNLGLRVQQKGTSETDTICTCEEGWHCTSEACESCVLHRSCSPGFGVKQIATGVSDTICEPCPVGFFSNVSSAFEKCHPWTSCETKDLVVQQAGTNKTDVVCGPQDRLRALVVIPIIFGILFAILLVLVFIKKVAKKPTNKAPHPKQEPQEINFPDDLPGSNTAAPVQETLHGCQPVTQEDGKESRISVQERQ

B1: scCD40L-EHD2-scCD27L (ligand)
chain: GDQNPQIAAHVISEASSKTTSVLQWAEKGYYTMSNNLVTLENGKQLTVKRQGLYYIYAQVTFCSNREASSQAPFIASLCLKSPGRFERILLRAANTHSSAKPCGQQSIHLGGVFELQPGASVFVNVTDPSQVSHGTGFTSFGLLKLGGGSGGGGDQNPQIAAHVISEASSKTTSVLQWAEKGYYTMSNNLVTLENGKQLTVKRQGLYYIYAQVTFCSNREASSQAPFIASLCLKSPGRFERILLRAANTHSSAKPCGQQSIHLGGVFELQPGASVFVNVTDPSQVSHGTGFTSFGLLKLGGGSGGGGDQNPQIAAHVISEASSKTTSVLQWAEKGYYTMSNNLVTLENGKQLTVKRQGLYYIYAQVTFCSNREASSQAPFIASLCLKSPGRFERILLRAANTHSSAKPCGQQSIHLGGVFELQPGASVFVNVTDPSQVSHGTGFTSFGLLKLGGSGGDFTPPTVKILQSSCDGGGHFPPTIQLLCLVSGYTPGTINITWLEDGQVMDVDLSTASTTQEGELASTQSELTLSQKHWLSDRTYTCQVTYQGHTFEDSTKKCADSNGGSGGSLGWDVAELQLNHTGPQQDPRLYWQGGPALGRSFLHGPELDKGQLRIHRDGIYMVHIQVTLAICSSTTASRHHPTTLAVGICSPASRSISLLRLSFHQGCTIASQRLTPLARGDTLCTNLTGTLLPSRNTDETFFGVQWVRPGGGSGGGSLGWDVAELQLNHTGPQQDPRLYWQGGPALGRSFLHGPELDKGQLRIHRDGIYMVHIQVTLAICSSTTASRHHPTTLAVGICSPASRSISLLRLSFHQGCTIASQRLTPLARGDTLCTNLTGTLLPSRNTDETFFGVQWVRPGGGSGGGSLGWDVAELQLNHTGPQQDPRLYWQGGPALGRSFLHGPELDKGQLRIHRDGIYMVHIQVTLAICSSTTASRHHPTTLAVGICSPASRSISLLRLSFHQGCTIASQRLTPLARGDTLCTNLTGTLLPSRNTDETFFGVQWVRP
notes: From HEK293; Ig kappa leader left out; dimer through EHD2, about 50% covalently linked, SEC major peak at monomer size; also called EHD2-scDuokine scCD40L-EHD2-scCD27L; not shown: N-terminal FLAG tag
For B1, the EC50 (in general, the concentration giving half of the maximal effect) in assay [1] turned out to be 2.03 nM; in assay [2] it was 4.05 nM. Further, the binding result in assay [3] is listed as “no binding (tested: 100 nM (FIG. 16))”. The “Receptor activation (EC50, nM), IL-8 release from HT1080 cells” value in assay [4] amounted to 2 nM.
